Reference: US20210253636A1
Where no end group is shown, it is not given here. The star is where a group is joined. biotin = biotin label attached through an aminohexanoic acid linker; Biotin = O=C1N[C@H]2[C@H](CS[C@H]2CCCCC(=O)*)N1; Ahx = NCCCCCC(=O)O

Legend:
[1] = biological target: peptide-binding domain of GRP78 (GRP78-PBD, amino acids 421-639) (UniProt P11021); assay: SPR (BIACORE T200), N-biotin peptide on streptavidin CM5 chip, GRP78-PBD analyte
[2] = biological target: peptide-binding domain of GRP78 (GRP78-PBD, amino acids 421-639) (UniProt P11021); assay: SPR (BIACORE T200), C-terminal biotin peptide on streptavidin CM5 chip, GRP78-PBD analyte

Chain of peptide-binding domain of GRP78 (GRP78-PBD, amino acids 421-639) (P11021 421-639 limits assumed, form in doubt): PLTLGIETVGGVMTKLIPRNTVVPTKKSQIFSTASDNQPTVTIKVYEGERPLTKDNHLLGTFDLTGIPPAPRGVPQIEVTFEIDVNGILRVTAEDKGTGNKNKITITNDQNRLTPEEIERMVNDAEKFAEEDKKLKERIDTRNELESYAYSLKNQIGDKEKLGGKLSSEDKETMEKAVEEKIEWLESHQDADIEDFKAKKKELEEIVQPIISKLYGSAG

Binder | Kd [1] | koff [1] | kon [1] | Kd [2] | koff [2] | kon [2]
{biotin-Ahx}-GGGGSRPFLPFLPY [F4P6-TR-CTP, N-terminally extended with GGGGS and N-terminally biotin-labeled] | 1200 nM | 0.0028 s⁻¹ | 2300 M⁻¹ s⁻¹ | – | – | –
RLLDTNRPFLFYGGGGSK(Biotin) [P13-CTP-cBiotin (P13-CTP extended at the C-terminus with GGGGSK, biotin on the C-terminal lysine)] | – | – | – | 2700 nM | 0.002 s⁻¹ | 970 M⁻¹ s⁻¹
{biotin-Ahx}-GGGGSRLLDTNRPFLFY [P13-CTP, N-terminally extended with GGGGS and N-terminally biotin-labeled] | 2700 nM | 0.0034 s⁻¹ | 1200 M⁻¹ s⁻¹ | – | – | –
{biotin-Ahx}-GGGGSRPFLPFLPYRPFLPFLPY [F5P6-TR-CTP, N-terminally extended with GGGGS and N-terminally biotin-labeled] | 1000 nM | 0.00091 s⁻¹ | 890 M⁻¹ s⁻¹ | – | – | –
{biotin-Ahx}-GGGGSRPFLFPFLFY [F4P13-TR-CTP, N-terminally extended with GGGGS and N-terminally biotin-labeled] | 2100 nM | 0.0017 s⁻¹ | 790 M⁻¹ s⁻¹ | – | – | –

Second part, the binder after the results:

Kd [1] | koff [1] | kon [1] | Kd [2] | koff [2] | kon [2] | Binder
610 nM | 0.0012 s⁻¹ | 1900 M⁻¹ s⁻¹ | – | – | – | {biotin-Ahx}-GGGGSRPFLFPFLFYRPFLFPFLFY [F5P13-TR-CTP, N-terminally extended with GGGGS and N-terminally biotin-labeled]
– | – | – | 660 nM | 0.0012 s⁻¹ | 1800 M⁻¹ s⁻¹ | RPFLFPFLFYGGGGSK(Biotin)
– | – | – | 1200 nM | 0.00029 s⁻¹ | 240 M⁻¹ s⁻¹ | MRPFLFPFLFYGGGGSK(Biotin)
1900 nM | 0.003 s⁻¹ | 1500 M⁻¹ s⁻¹ | – | – | – | {biotin-Ahx}-GGGGSRLLDTNRPFLPY [P6-CTP, N-terminally extended with GGGGS and N-terminally biotin-labeled]
